Numbering of substitutions follows the chain as printed.
B1: ^CDD4 wt (C-terminal docking domain of stambomycin PKS subunit Pks4) (domain or fragment)
chain: GPGSYADRLLAELARLEADLTRMDGDEEDRTRLAARLRALADRCQGERTRRDDNLDAASIEEVFDLLDTEFETP
B2: ^CDD4 SDM (C-terminal docking domain of Pks4 with 3 specificity-code residues mutated to match ^CDD8) (domain or fragment)
chain: B1 chain with E61D, L67I, F71L
B3: ^CDD8 (C-terminal docking domain of stambomycin PKS subunit Pks8) (domain or fragment)
chain: GPGSYGPAALLADLDRLDAALAGTGPGDETRSRVISRLHALLARHDTADGSGLVTAAGNLDAADDDNLFAFIDNELGA
B4: ^CDD4 helix swap (C-terminal docking domain of Pks4 with its docking α-helix exchanged for that of ^CDD8) (domain or fragment)
chain: GPGSYADRLLAELARLEADLTRMDGDEEDRTRLAARLRALADRCQGERTRRDDNLDAADDDNLFAFIDNELGA

Experiments:
[1] = target: the molecule itself; experiment: SEC-MALS; Superdex75 10/300, 20 °C, 0.5 mL min^-1, 20 mM HEPES, 100 mM NaCl, 0.5 mM TCEP, pH 7.5; each docking domain alone
[2] = target: T1, ^NDD5 (N-terminal docking domain of stambomycin PKS subunit Pks5) (Streptomyces ambofaciens ATCC23877); experiment: ITC; ^CDD (700 μM) in the syringe titrated into the ^NDD in the cell (^NDD5 70 μM; ^NDD9 Met 80 μM; ^NDD9 Val 120 μM); 20 °C; buffer GF (20 mM HEPES, 100 mM NaCl, 0.5 mM TCEP, pH 7.5); one-site binding model; two independent titrations; conditions: both partners purified
T1 chain: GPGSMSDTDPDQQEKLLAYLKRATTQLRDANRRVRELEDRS

[3] = target: T2, ^NDD9 Met (N-terminal docking domain of stambomycin PKS subunit Pks9, version with the Met start site) (Streptomyces ambofaciens ATCC23877); experiment: as above; conditions: both partners purified
T2 chain: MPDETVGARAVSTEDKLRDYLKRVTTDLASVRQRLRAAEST

[4] = target: T3, ^NDD9 Val (N-terminal docking domain of stambomycin PKS subunit Pks9, version with the Val start site) (Streptomyces ambofaciens ATCC23877); experiment: as above; conditions: both partners purified
T3 chain: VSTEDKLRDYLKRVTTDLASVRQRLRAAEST

Binder	stoichiometry N [1]	Kd [2] [µM]	stoichiometry N [2]	Kd [3] [µM]	stoichiometry N [3]	Kd [4] [µM]	stoichiometry N [4]
B1	2	14.5 ± 0.9	2 monomeric ^NDDs per homodimeric ^CDD				
B2	2						
B3	2			33 ± 2	2 monomeric ^NDDs per homodimeric ^CDD	22 ± 1	2 monomeric ^NDDs per homodimeric ^CDD
B4	2					21 ± 0.3	
